The values that follow come from publication PMC2766095.

The target of assay [1] is IL-33/ST2 complex (human) (UniProt Q01638). Nature of the assay: ITC. In general terms: ITC needs no label: the signal is the heat of the interaction.
Assay [2] concerns the target ST2-Fc fusion protein (R&D Systems) (UniProt Q01638). Description: SPR. Background: Surface plasmon resonance follows binding to a sensor surface in real time, without labels.
Assay [3] deals with ST2 extracellular domain (ectodomain) (human) (UniProt Q01638). Nature of the assay: ITC.

Usually Kd stands for the concentration at which binding is half-saturated. One may read the stoichiometry N as a count of units in the complex or per binding partner.

In assay [1], “IL-1 receptor accessory protein (IL-1RAcP) extracellular domain (from UniProt Q9NPH3 21-367)” gave a Kd of 76 nM, a dH of -11 kcal/mol and a stoichiometry N of 1.
Turning to IL-33 E34K (ligand), the Kd in assay [2] came out at 3.11 nM.
In turn, “human IL-33 (interleukin-33), recombinant mature IL-1-like form (ligand)” came in with a stoichiometry N in assay [3] of 1.
